In PMC6343008:

Molecular target: Globin E1 of the South American lungfish Lepidosiren paradoxa, recombinant (Lepidosiren paradoxa)

Substance: Globin E1 of the South American lungfish Lepidosiren paradoxa, recombinant (natural protein)
- cooperativity (n) of the O2 equilibrium curve, pH 7.2, 20 °C: 1.19
